According to patent US20100144645A1, “COMPOSITIONS AND METHODS FOR ENHANCING […] POTENCY OF […]-COMPOUNDS, A[…] ADVERSE SIDE EFFECTS, AND […] ABUSE” (SHIRE LLC, priority 2006, published 2010):

Assay: Oral bioavailability of oxycodone conjugates (plasma oxycodone plus oxymorphone)
Settings: Table G, rats

| SMILES | AUC % (Oral Bioavailability) [%] |
| --- | --- |
| CC[C@H](C)[C@H](NC(=O)[C@@H]1CCCN1C(=O)[C@@H]1CCCN1)C(=O)OC1=CCC2(O)[C@H]3Cc4ccc(OC)c5c4[C@@]2(CCN3C)C1O5 (stereo partly drawn) [Pro-Pro-Ile-OC] | 85 |
| COc1ccc2c3c1OC1C(OC(=O)[C@@H](NC(=O)[C@@H]4CCCN4C(=O)[C@@H]4CCCN4)C(C)C)=CCC4(O)[C@@H](C2)N(C)CC[C@]314 (stereo partly drawn) [Pro-Pro-Val-OC] | 152 |
| COc1ccc2c3c1OC1C(OC(=O)[C@@H](NC(=O)[C@H](Cc4ccc(O)cc4)NC(=O)[C@@H](N)Cc4ccc(O)cc4)C(C)C)=CCC4(O)[C@@H](C2)N(C)CC[C@]314 (stereo partly drawn) [Tyr-Tyr-Val-OC] | 124 |

Same assay, conditions: rats, n = 4, LC-MS, Dosed at 40% higher levels than calculated

| SMILES | Oral (% AUC) |
| --- | --- |
| CC[C@H](C)[C@H](NC(=O)CNC(=O)CN)C(=O)OC1=CCC2(O)[C@H]3Cc4ccc(OC)c5c4[C@@]2(CCN3C)C1O5 (stereo partly drawn) [Gly-Gly-Ile-OC] | 224 |

Same assay, conditions: rats, n = 4 animals, analysis by LC-MS, OXY = 100

| SMILES | Oral (% AUC) |
| --- | --- |
| COc1ccc2c3c1OC1C(OC(=O)[C@@H]4CCCN4C(=O)[C@H](CCC(=O)O)NC(=O)[C@@H](N)CCC(=O)O)=CCC4(O)[C@@H](C2)N(C)CC[C@]314 (stereo partly drawn) [Glu-Glu-Pro-OC] | 71 |
| COc1ccc2c3c1OC1C(OC(=O)[C@@H](NC(=O)[C@H](CCC(=O)O)NC(=O)[C@@H](N)CCC(=O)O)C(C)C)=CCC4(O)[C@@H](C2)N(C)CC[C@]314 (stereo partly drawn) [Glu-Glu-Val-OC] | 55 |
| COc1ccc2c3c1OC1C(OC(=O)[C@H](Cc4ccccc4)NC(=O)CNC(=O)CN)=CCC4(O)[C@@H](C2)N(C)CC[C@]314 (stereo partly drawn) [Gly-Gly-Phe-OC] | 163 |
| COc1ccc2c3c1OC1C(OC(=O)[C@@H](NC(=O)CNC(=O)CN)C(C)C)=CCC4(O)[C@@H](C2)N(C)CC[C@]314 (stereo partly drawn) [Gly-Gly-Val-OC] | 123 |
| CC[C@H](C)[C@H](N)C(=O)N[C@H](C(=O)N[C@H](C(=O)OC1=CCC2(O)[C@H]3Cc4ccc(OC)c5c4[C@@]2(CCN3C)C1O5)[C@@H](C)CC)[C@@H](C)CC (stereo partly drawn) [Ile-Ile-Ile-OC] | 83 |
| COc1ccc2c3c1OC1C(OC(=O)[C@@H](NC(=O)[C@H](CC(C)C)NC(=O)[C@@H](N)CC(C)C)C(C)C)=CCC4(O)[C@@H](C2)N(C)CC[C@]314 (stereo partly drawn) [Leu-Leu-Val-OC] | 81 |
| CC[C@H](C)[C@H](NC(=O)[C@H](CCCCN)NC(=O)[C@@H](N)CCCCN)C(=O)OC1=CCC2(O)[C@H]3Cc4ccc(OC)c5c4[C@@]2(CCN3C)C1O5 (stereo partly drawn) [Lys-Lys-Ile-OC] | 74 |
| COc1ccc2c3c1OC1C(OC(=O)[C@H](CC(C)C)NC(=O)[C@H](CCCCN)NC(=O)[C@@H](N)CCCCN)=CCC4(O)[C@@H](C2)N(C)CC[C@]314 (stereo partly drawn) [Lys-Lys-Leu-OC] | 46 |
| COc1ccc2c3c1OC1C(OC(=O)[C@H](Cc4ccccc4)NC(=O)[C@H](CCCCN)NC(=O)[C@@H](N)CCCCN)=CCC4(O)[C@@H](C2)N(C)CC[C@]314 (stereo partly drawn) [Lys-Lys-Phe-OC] | 37 |
| COc1ccc2c3c1OC1C(OC(=O)[C@@H](NC(=O)[C@H](CCCCN)NC(=O)[C@@H](N)CCCCN)C(C)C)=CCC4(O)[C@@H](C2)N(C)CC[C@]314 (stereo partly drawn) [Lys-Lys-Val-OC] | 108 |
| CC[C@H](C)[C@H](NC(=O)[C@H](Cc1ccccc1)NC(=O)[C@@H](N)Cc1ccccc1)C(=O)OC1=CCC2(O)[C@H]3Cc4ccc(OC)c5c4[C@@]2(CCN3C)C1O5 (stereo partly drawn) [Phe-Phe-Ile-OC] | 59 |
| COc1ccc2c3c1OC1C(OC(=O)[C@@H](NC(=O)[C@H](Cc4ccccc4)NC(=O)[C@@H](N)Cc4ccccc4)C(C)C)=CCC4(O)[C@@H](C2)N(C)CC[C@]314 (stereo partly drawn) [Phe-Phe-Val-OC] | 32 |
| CC[C@H](C)[C@H](NC(=O)[C@@H]1CCCN1C(=O)[C@@H]1CCCN1)C(=O)OC1=CCC2(O)[C@H]3Cc4ccc(OC)c5c4[C@@]2(CCN3C)C1O5 (stereo partly drawn) [Pro-Pro-Ile-OC] | 85 |
| COc1ccc2c3c1OC1C(OC(=O)[C@@H](NC(=O)[C@@H]4CCCN4C(=O)[C@@H]4CCCN4)C(C)C)=CCC4(O)[C@@H](C2)N(C)CC[C@]314 (stereo partly drawn) [Pro-Pro-Val-OC] | 152 |
| CC[C@H](C)[C@H](NC(=O)[C@H](Cc1ccc(O)cc1)NC(=O)[C@@H](N)Cc1ccc(O)cc1)C(=O)OC1=CCC2(O)[C@H]3Cc4ccc(OC)c5c4[C@@]2(CCN3C)C1O5 (stereo partly drawn) [Tyr-Tyr-Ile-OC] | 85 |
| COc1ccc2c3c1OC1C(OC(=O)[C@H](Cc4ccccc4)NC(=O)[C@H](Cc4ccc(O)cc4)NC(=O)[C@@H](N)Cc4ccc(O)cc4)=CCC4(O)[C@@H](C2)N(C)CC[C@]314 (stereo partly drawn) [Tyr-Tyr-Phe-OC] | 73 |
| COc1ccc2c3c1OC1C(OC(=O)[C@@H]4CCCN4C(=O)[C@H](Cc4ccc(O)cc4)NC(=O)[C@@H](N)Cc4ccc(O)cc4)=CCC4(O)[C@@H](C2)N(C)CC[C@]314 (stereo partly drawn) [Tyr-Tyr-Pro-OC] | 59 |
| COc1ccc2c3c1OC1C(OC(=O)[C@@H](NC(=O)[C@H](Cc4ccc(O)cc4)NC(=O)[C@@H](N)Cc4ccc(O)cc4)C(C)C)=CCC4(O)[C@@H](C2)N(C)CC[C@]314 (stereo partly drawn) [Tyr-Tyr-Val-OC] | 124 |
| COc1ccc2c3c1OC1C(OC(=O)[C@H](Cc4ccccc4)NC(=O)[C@@H](NC(=O)[C@@H](N)C(C)C)C(C)C)=CCC4(O)[C@@H](C2)N(C)CC[C@]314 (stereo partly drawn) [Val-Val-Phe-OC] | 120 |
